Experimental findings from the DeepSol protein solubility set are described below.

The nature of the data set: soluble on expression in E. coli; label from the status in PepcDB or PDB records.
Take “MKTAIVTDSASYLSAADVEKYHIHVVPITVIFGHQTYLENVEITSKEFYERMRTAPELPTTTQITLGQMQTTYDQLAKAGYDAVISIHLSSGITSFITNLESYLPNVTNIKVYPFDSLITAGGEAYMVLLAAKLVTEGYSPEQVIAQLKKIRETTGVYFVVDNLSHLVRTGRLSNASGLVGNLLRIKPVLTFQDGKIVAIQKERTMRRAYAAIKAKLAAEIAAVDYPLRVTIENGNNPKLQAEWTADLKASFPDLTIDEGEIGPVVGVHVGEGVMGLIWARDWEKWTI”: the “soluble on expression in E. coli” value is “not soluble”.

Consider “MGSDKIHHHHHHMHTDVNQLFAALWDDYVEMTPSAAKVHQLLAKGETIINDHIALRTFNIAKVNLSVLAKHFESLGYVACGDYDFEAKKLKAKHFEHPDPTQPKVFISELMVEAFSPELQAIVHGLVEQVDEAATTADNFLYSGRHWELDYATYEQLLAESEYAAWVAAFGYRANHFTVSINHLPGYNTILEVNETLKQGDFVLNSVGGEVKGSADVLLEQSSTMADKVNVAFKDVQKTIPSCFYEFALRYPKADGELYTGFVAASADKIFESTNNAG”, for which the “soluble on expression in E. coli” value is “not soluble”.

With “MGSSHHHHHHSSGRENLYFQGMVKNYVLDTNVLIHDPDSIFSFEDNNVIIPLPVLEELDKLKREHGSVGKNAREVIRHLDELRKKGNLRKGIPLENGGILRVMVLEREVENVPRFLHERYVDNIILAYVIELMNREKIPTILVSKDINLRVKADSLGIPAQDYLTDRSELETMPKGYVEIDDEELKKQLKVKVTVEKKLDLLDNFYIDLGGVYGKYRKGKVLRVEPFETMGISPRNREQIFSMDALLDDEIPLVFLVGIAGTGKTLLALACGLYKVLVEKRYKKLIVTRPTVPMGRDIGYLPGELEKKMKPWLQPIMDNLELISSLSGLKIKELEKQEILEVEAISFIRGRSIPKQFIIIDEAQNLTPHEVKTILTRVGEDTKIVLVGDPYQIDTPYLDKDTNGLVYAALKLLESDLSAVIKLEKGERSRLATIAAELL”, the “soluble on expression in E. coli” value is on record as “soluble”.

“MKTNSEELTVFVQVVESGSFSRAAEQLEMANSAVSRIVKRLEEKLGVNLLNRTTRQLNLTEEGAQYFRRAQRILQEMAAAETEMLAVHEVPQGVLRVDSAMPMVLHLLAPLAAKFNERYPHIRLSLVSSEGYINLIERKVDIALRAGELDDSGLRARHLFDSHFRVVASPEYLAKHGTPQSAEDLANHQCLGFTEPGSLNTWAVLDAQGNPYKISPHFTASSGEILRSLCLSSCGIACLSDFLVDNDITEGKLIPLFAEQTSNKTHPFNAVYYSDKAVNLRLRVFLDFLVKELGKNMNRTNTK”: the “soluble on expression in E. coli” value is “not soluble”.

With “MGSDKIHHHHHHMSLKDYDAARLAQVREEVTAKYAELKAKNLSLDLTRGKPSAEQLDLSNDLLSLPGGDFRTKDGVDCRNYGGLLGIADIRELWAEALGLPADLVVAQDGSSLNIMFDLISWSYTWGNNDSSRPWSAEEKVKWLCPVPGYDRHFTITEHFGFEMINVPMTDEGPDMGVVRELVKDPQVKGMWTVPVFGNPTGVTFSEQTCRELAEMSTAAPDFRIVWDNAYALHTLSDEFPIVHNVIEFAQAAGNPNRFWFMSSTSKITHAGSGVSFFASSKENIEWYASHANVRGIGPNKLNQLAHAQFFGDVAGLKAHMLKHAASLAPKFERVLEILDSRLSEYGVAKWTSPTGGYFISVDVVPGTASRVVELAKEAGIALTGAGSSFPLHNDPNNENIRLAPSLPPVAELEVAMDGFATCVLMAALEV”, the “soluble on expression in E. coli” value is reported as “not soluble”.

For “MFLNSLDLPGQPENSRIVVAMSGGVDSSVVAGLLKKEGYDVIGITLQLYDHGAATHRVGACCAGQDIEDARCVAETLGIPHYVLDYEERFREAVIDPFAASYAHGETPVPCIACNQTVKFADLLATARELDADALATGHYIRSRSHGAHRALFRPLDSDRDQSYFLFATTQEQIDYLRFPLGDLPKARVREMATEMGFVVANKHDSQDICFVPQGKYSDIITKLRPEAVNPGVIVHVDGQVLGKHSGIVHYTVGQRRGIGVATGEALYVVYLDVENARVIVGPREMLETHKLFLRDVNWLGDERLDNFPPDGIEMAVKVRSTRPPHLARLHYQEGVFSVDFLECENSVAPGQACVFYDGNSDGARVLGGGFVTHSERAAETEMMLKRVLCNLETTSAVASEFKTKVSYT”, the “soluble on expression in E. coli” value is “not soluble”.

With “MGSDKIHHHHHHMLNFTVGPVMSSEEVRAIGAEQVPYFRTTEFSSTMLENEKFMLEYAKAPEGSKAVFMTCSSTGSMEAVVMNCFTKKDKVLVIDGGSFGHRFVQLCEIHEIPYVALKLEHGKKLTKEKLYEYDNQNFTGLLVNVDETSTAVLYDTMMIGEFCKKNNMFFVCDCVSAFLADPFNMNECGADVMITGSQKVLACPPGISVIVLAPRGVERVEKSKVRTMYFDLKDALKNQERGQTPFTPAVGILLQINERLKEIKKHGGADAEVARIASQAADFRAKIKDLPFELVSESPANGVTSVHPTTANAYDIFLKLKDEYGIWICPNGGEMKDTIFRVGHIGALTHEDNTTLVNAFKDLQKRNLL”, the “soluble on expression in E. coli” value is given as “not soluble”.

As for “GSMYQLQFINLVYDTTKLTHLEQTNINLFIGNWSNHQLQKSICIRHGDDTSHNQYHILFIDTAHQRIKFSSFDNEEIIYILDYDDTQHILMQTSSKQGIGTSRPIVYERLV”, the “soluble on expression in E. coli” value is given as “soluble”.

On to “SNALFSSRDILEVLQDIHMETGETVAIATKNDIYLQYIQIIESVHALRFHVDENAIRPLTMSSNGWMLMSTMNDKAIDNTVRRANTITQKDGIRFEVDDMMARIRQVREQGYASAEHIPFVGGGTICVLLPMTIQGQPVTMGLGGALDRIKQNYDRYLELLLNGVQQLKKSDSFHQPI”, for which the “soluble on expression in E. coli” value is recorded as “soluble”.

With “MAHHHHHHMLSDNDLTFHIPSAGLRRMDAWTAPNPSVFSHLHLVGNPDWMSSFSASPQVAAARPALAPPAPVAIEPSAPRPLAAPAAIDAPAPATKKSFLSMFYRGSSNTVSSSVMPPKTSSASFAPMSAPPKALDAFDTPMQRALPVDAQLSVEHLSKLDAVDATISAAPRREPPHPMALGSDTWNALSSVPVPAKTAAGSARLLAPPASIDAVFSRDSKPLWSDLSFASRFRSTAPTLEAFRNAPPAPILSTPPRSPQHQATSSTATVATAFIPVPPKPVTASPLRDTAVSSVEAAAPATMPAARREPRAMAHPLVPVGEDAPAVVTPLLKPVQEIPMVSSKSANLAPSTVNATPPVWGPEPLSLASREPEPSALALPTEFAKSISRPTMQEAQRDEARAAANVRNFISTLFSGSGSDEMDSSTAGNRKADGFNALEFVTNRRGAQAKASQPVDYSTFFNTSLFEDDHDEDSEEGLEKLRRVVLMVMQSAKNSEGTCVSQPTSQSCRRGGGVDATGVAALTTFPSKYTEFSASYQTANNNNADDNEWMQFAR”, the “soluble on expression in E. coli” value is on record as “not soluble”.

For the sequence “MASSTSLAIVLHQSSNHDELFMKQTLQFSETLKDLKNLRKQLYSAAEYFETSYGKAEHKETVIETLKEYAAKAVVNTVDHLGSVSDKFNSFLSDNSTHFSTTHLRLSSLEQRMRLCRDYMGKSGTHQHLLLFQYPRHHKRYFFPQQGRGTSFSAGDDSHRFTSAVRSTILENLPNTARKANKTGSFSFAPIVHNNINNRTPNKRSNSPMRFPLLRSGSLLKRSSSPSQPKKPPLALPEPQRAISVSRNTEIVEIKQSSSRKGKKILMFKALMSMSKSRN”, the “soluble on expression in E. coli” value was “soluble”.

For “MEGYPKIQYHGFIGNNRTAMLVAMNGYIDWGCLPNFNSNAVFSSILDKNKGGYFAIFPSDTTDVYVDQYYKEMTNVLVTEFVKNGKIILRLTDFMPDSEYGKISFPEVHRFVESFSEPIDITIDFKPTFNYLEHHHHHH”, the “soluble on expression in E. coli” value was “not soluble”.

Take “MGSDKIHHHHHHMEKYSAESIKVLKGLEPVRMRPGMYIGSTGKRGLHHLVYEVVDNSVDEALAGYCDWIRVTLHEDGSVEVEDNGRGIPVDIHPEEGRSALEVVFTVLHAGGKFSKDSYKISGGLHGVGVSVVNALSEWLEVRVHRDGKIYRQRYERGKPVTPVEVIGETDKHGTIVRFKPDPLIFSETEFDPDILEHRLREIAFLVPGLKIEFEDRINGEKKTFKFDGGIVEYVKYLNRGKKALHDVIHIKRTEKVKTKNGEDEVIVEIAFQYTDSYSEDIVSFANTIKTVDGGTHVTAFKSTLTRLMNEYGKKHNFLKKDDSFQGEDVREGLTAVISVYVKNPEFEGQTKSKLGNEEVKEAVTKAMREELKKIFDANPELVKTILSKIMSTKQAREAAKRAREMVRRKNVLQNTTLPGKLADCSSTHREKTELFIVEGDSAGGSAKQARDREFQAVLPIRGKILNVEKSSLDRLLKNEQISDIIVAVGTGIGDDFDESKLRYGRIIIMTDADIDGAHIRTLLLTLFYRYMRPLIEQGRVYIALPPLYRIKAGREEFYVYSDQELAEYKEKLQGKRIEIQRYKGLGEMNPEQLWETTMNPETRKIIRVTIEDAEEADRLFEILMGNDPSSRREFIERHALKVKELDI”: the “soluble on expression in E. coli” value is listed as “not soluble”.

With “MSNHDQLHRYLFANHAVRGELVSVNETYQQVLANHDYPPAVQKLLGEMLVATSLLTATLKFDGDITVQLQGGDGPLTLAVINGNNRQEMRGVARVKGEISDDSTLQEMVGNGYLVITITPAQGERYQGVVALEGETIAACLENYFMQSEQLPTRLFIRTGHVADKAAAGGMLLQVLPAQERNEDEFDHLAQLTATIKAEELFTLPANEVLYRLYHQEEVTLYEPQNVSFRCTCSRQRCADALVTLADDDVTEMLEQDGNIDMHCEYCGNHYLFDAVDIATLKNGNSASSEQIH”, the “soluble on expression in E. coli” value is recorded as “not soluble”.

Turning to “MGSDKIHHHHHHMATRSATQPVSPQVARLARGLKLGANSMLVTLFGDVVAPRPQALWLGSLIRLAEPFGINDRLVRTATFRLTSDDWLNATRIGRRSYYGLSEAGLQRCLHAGKRIYAGDAPDWDGRWTLALVRGDARATIRQRLKRELLWEGFGAIAPGVYAHPNADANSLGEIIRAAHAQDFVAVMDATSLETFSIRPLQTLMHQTFKLGDVASAWQALLRRFSPVLADAHAMTPADAFFVRTLLLHEYRRVLLRDPNLPEQLLPTDWPGRTARDLCRDMYAALLDASEDYLREVVEVSEGTLANATRLLRRRFAMA”, the “soluble on expression in E. coli” value is on record as “not soluble”.

For the sequence “MEEVEEFKYEPKSVKEIFIEMKDTVELMVDLAYASLLFGDKEIAEEVLELEERIDLLNYQLMMHSVLAARNVKEAEQVITILQIANAIEDISNAAGDLAKMVLEGVELHPVIKETILEGEEIIGKIQVYPESVIVGKTLGELDLATNTGVWIIAVRRGKRWIFGPNENFKIRAGDVLIGRGTRTSIDHLKEIARGAIRVIGNERA”, the “soluble on expression in E. coli” value is on record as “soluble”.

For the sequence “MSLKGRVAVRTVDAIPQTFAINGIFRISRGSKTSAQVIAVSIAESGYIGRGECVPYARYGETIESVMDQIRSMTPAIEAGMDLSELQSAMAPGAARNAVDCALWDLRAQKTRQSLASVIELGHELQPVLTAFTISLDAPAAMGKAAAVHEHLPILKLKLGGDGDLERVRAVRAAAPHARLMVDANEAWSIDHLRAFAPEFAAMGVELIEQPLPADADDFLKSFNSPVPLAADESCRTLMSLSKIVGKYEIANIKLDKAGGLTEALSLQAAARASGLGTMVGCMVATSLSMAPGIILAQRADVVHLDGPLLLAEDRTPSLRYSGATLYPPEPEVWGGEGHHHHHH”, the “soluble on expression in E. coli” value is “soluble”.

With “MSEKLQVVTLLGSLRKGSFNGMVARTLPKIAPASMEVNALPSIADIPLYDADVQQEEGFPATVEALAEQIRQADGVVIVTPEYNYSVPGGLKNAIDWLSRLPDQPLAGKPVLIQTSSMGVIGGARCQYHLRQILVFLDAMVMNKPEFMGGVIQNKVDPQTGEVIDQGTLDHLTGQLTAFGEFIQRVKI”, the “soluble on expression in E. coli” value was “not soluble”.

Take “MTESNGNSEITTTEGNTGPVVESSLDPLAGRPEQSEDDIAKASDVEEYLRDVIDPELGINVVDLGLVYDIWMEGSIHAHVNMTLTSPACPLTDVIEDQAESAVVGNKVAETLTIHWVWMPPWGPHMITEDGREQLRALGFSV”: the “soluble on expression in E. coli” value is given as “not soluble”.
